# Measured values from IntAct's records for PubMed 10930573.
# B1: Histidine kinase 1 (Arabidopsis thaliana (Mouse-ear cress)), Q9SXL4 (parent)
# chain: MRGDSFSMSIENLPDSPMGSRKKKMQIRKVFDKMTEWVTPWRSNLESPREMMILRGDVEQDEFQYASSHCLSSYYSVFVVRLAIMVMLAILIGLLTVLTWHFTRIYTKQSLQTLAYGLRYELLQRPVLRMWSVLNTTSELTTAQVKLSEYVIKKYDKPTTQEELVEMYQAMKDVTWALFASAKALNAITINYRNGFVQAFHRDPASSSTFYIFSDLKNYSISGTGPEDVSGWNNKSIHGNMSAIWYQQQLDPVTGENLGKPLKIPPDDLINIAGISQVPDGEASWHVTVSKYMDSPLLSAALPVFDASNKSIVAVVGVTTALYSVGQLMRDLVEVHGGHIYLTSQEGYLLATSTDGPLLKNTSNGPQLMKATDSEEWVIKSGAQWLEKTYGSKRPHVVHAENVKLGDQRYYIDSFYLNLKRLPIVGVVIIPRKFIMGKVDERAFKTLIILISASVCIFFIGCVCILILTNGVSKEMKLRAELIRQLDARRRAEASSNYKSQFLANMSHELRTPMAAVIGLLDILISDDCLSNEQYATVTQIRKCSTALLRLLNNILDLSKVESGKLVLEEAEFDLGRELEGLVDMFSVQCINHNVETVLDLSDDMPALVRGDSARLVQIFANLISNSIKFTTTGHIILRGWCENINSLHDEMSVSVDRRKPWAPMKTKQVQHRNHLQKSCKNANKMVLWFEVDDTGCGIDPSKWDSVFESFEQADPSTTRTHGGTGLGLCIVRNLVNKMGGEIKVVQKNGLGTLMRLYLILSTPDTVDQNIQPDFSKYGLVVMLSMYGSTARMITSKWLRKHGIATVEASDWNELTQIIRDLLETGSRDNSFDSQHNISDPLRAELSNIVEIKNPVFVIVVDIGVLDLTTNIWKEQLNYLDRFSNKAKFAWLLKHDTSNTVKTELRRKGHVMMVNKPLYKAKMIQILEAVIKNRKRGLCNDLRNRGNGSDESHDCLEIDPTQFDTCSSDDSSETSGEKQVDKSVKPSTLHSPVLKNYLIDATTSNDDSTSASMTQKNPEEEDWKDRLYSGIALDGKNQKSLEGIRILLAEDTPVLQRVATIMLEKMGATVTAVWDGQQAVDSLNYKSINAQAPTEEHKSFEEETANKVTTRETSLRNSSPYDLILMDCQMPKMDGYEATKAIRRAEIGTELHIPIVALTAHAMSSDEAKCLEVGMDAYLTKPIDRKLMVSTILSLTKPSAFQTSLSA
# partner: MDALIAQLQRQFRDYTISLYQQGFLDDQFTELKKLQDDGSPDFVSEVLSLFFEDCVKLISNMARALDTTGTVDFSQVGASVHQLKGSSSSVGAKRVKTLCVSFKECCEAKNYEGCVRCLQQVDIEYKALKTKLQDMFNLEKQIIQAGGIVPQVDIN
# Variants of: B1
# Conditions: with ahp2_arath AHP2, Q9ZNV8
row,effect of a mutation on the interaction,Variant
1,disrupting interaction,D1075E
